# Assay results reported in patent US20240343803A1 (SHANDONG SIMCERE BIOPHARMACEUTICAL, published 2024).
# T1: human PVRIG-his (AcroBiosystems, Cat NO. PVG-H52H4) (human, UniProt Q6DKI7 41-171, limits assumed)
# T1 construct: Bought reagent; also called human PVRIG protein
# T1 sequence (looked up): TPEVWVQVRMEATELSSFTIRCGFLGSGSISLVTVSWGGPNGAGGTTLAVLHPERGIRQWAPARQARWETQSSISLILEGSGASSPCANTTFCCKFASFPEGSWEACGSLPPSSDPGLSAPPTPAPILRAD
# T2: cynomolgus monkey PVRIG (Novoprotein, Cat NO. C09B) (cynomolgus monkey, UniProt A0A2K5WVV8 41-171)
# T2 construct: Bought reagent; also called cynomolgus monkey PVRIG protein
# T2 sequence: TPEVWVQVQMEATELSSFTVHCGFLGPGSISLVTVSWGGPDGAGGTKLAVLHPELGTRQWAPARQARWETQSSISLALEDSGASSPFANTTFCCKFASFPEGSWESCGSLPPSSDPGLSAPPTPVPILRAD
# T3: human PVRIG on FlpinCHO-PVRIG cells (human, UniProt Q6DKI7 41-326)
# T3 construct: whole, on cells
# T3 sequence (looked up): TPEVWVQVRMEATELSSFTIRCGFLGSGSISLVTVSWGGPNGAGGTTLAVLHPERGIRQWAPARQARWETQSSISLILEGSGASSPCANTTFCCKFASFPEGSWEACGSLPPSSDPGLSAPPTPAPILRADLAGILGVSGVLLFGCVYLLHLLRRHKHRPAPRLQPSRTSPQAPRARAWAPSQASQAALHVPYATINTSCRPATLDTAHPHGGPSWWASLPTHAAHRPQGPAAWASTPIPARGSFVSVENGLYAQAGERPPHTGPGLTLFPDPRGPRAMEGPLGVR
# T4: cynomolgus monkey PVRIG on FlpinCHO-cyno PVRIG cells (cynomolgus monkey, UniProt A0A2K5WVV8 41-322)
# T4 construct: whole, on cells
# T4 sequence: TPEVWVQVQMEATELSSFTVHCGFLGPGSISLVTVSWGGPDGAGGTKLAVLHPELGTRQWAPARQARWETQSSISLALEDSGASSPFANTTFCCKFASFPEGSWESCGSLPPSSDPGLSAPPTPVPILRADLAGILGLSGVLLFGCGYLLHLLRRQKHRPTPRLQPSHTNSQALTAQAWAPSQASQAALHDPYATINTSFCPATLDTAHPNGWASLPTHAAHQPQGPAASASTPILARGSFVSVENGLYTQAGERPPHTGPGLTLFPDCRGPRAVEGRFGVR
# B1: PVRIG-A75 (Fc fusion)
# chain: QLQLVESGGGLVQSGGSLRLSCAASGRTRSMYVMGWFRQAPGKEREFVGRIKWSGDTTYTSYADFVKGRFTLYGNQARNTVYLQMNSLKPEDTAVYSCAASKFPVSGVPEHYDYWGQGTQVTVSS
# notes: Alpaca VHH joined to human IgG1 Fc (VHH-hinge-CH2-CH3); not shown: human IgG1 hinge-CH2-CH3
# B2: PVRIG-A35 (Fc fusion)
# chain: EVQVVESGGGLVQSGGSLRLSCAASGRTRSMYVMGWFRQAPGKEREFVGRIKWSGDTTYTSYADFVKGRFTLYGNQARNTVYLQMNSLKPEDTAVYYCNGRSRFNVINAWGTGTLVTVAS
# notes: as for B1
# B3: PVRIG-A30 (Fc fusion)
# chain: QVQLVESGGGLVQPGGSLRLSCAASGRTDSMNVMGWFRRAPGKEREFVARIKWNGDTTYTAYADFLKGRFTLYGAVARNRVYLQMNSLQPEDTAVYYCAAGEVSGSSYSPDYGMHYWGKGTLVTVSS
# notes: as for B1
# B4: PVRIG-A104 (Fc fusion)
# chain: EVQVVESGGGLVQAGGSLRLSCAASGRTRSMYVMGWFRQAPGKEREFVGRIKWSGDTTYTSYADFVKGRFTLYGNQARNTVYLQMNSLKPEDTAVYYCYRRSWTNTKLYWGKGIQVTVSS
# notes: as for B1
# B5: PVRIG-A118 (Fc fusion)
# chain: QVQLVESGGGLVQAGGSLRLSCAASETYFDLYVMGWYRQAPGKDRELVATITYTGSIKIVDSVKDRFTISRGDAKNTVSLQMSSLKPEDTAVYFCNADPSGLGRKVYWGQGTQVTVSS
# notes: as for B1
# B6: PVRIG-A117 (Fc fusion)
# chain: EVQVVESGGGLVQAGGSLRLSCTASEHIYDLYIMGWYRQAPGKDRELVATITYTGSIYIADSVKDRFTISRGNAKNTVSLQMSGLKPEDTAVYYCNADPSGLGRKLYWGQGTQVTVSS
# notes: as for B1
# B7: PVRIG-A50 (Fc fusion)
# chain: EVQLVESGGGLVQPGGSLRLSCAASGFTFSYYDMSWVRQAPGKGLEWVSTINSNGGRTSYVDSVKGRFTISRDNTKNTLYLQMNSLKPEDTAVYYCVEGDPHNFGLENLSLRDFGSWGQGTQVTVSS
# notes: as for B1
# B8: PVRIG-A15 (Fc fusion)
# chain: QVQLVESGGGLVQAGGSLRLSCVASGRTFSANTMAWFRQAPGKEREFVAYTRWTDDNTDYASYADFVKGRFTAFRDNTRNTMYLQMNRLRPEDTAVYYCAAATTRGTYYSAGDYNSWGQGTQVTVSS
# notes: as for B1
# B9: PVRIG-A43 (Fc fusion)
# chain: QVQLVESGGGLVQSGGSLRLSCAASGRTRSMYVMGWFRQAPGKEREFVGRIKWSGDTTYTSYADFVKGRFTLYGNQARNTVYLQMNSLKVEDTAVYYCAGRVVPLPSRQRDRYDYWGQGTQVTVSS
# notes: as for B1
# B10: PVRIG-A60 (Fc fusion)
# chain: QVQLVESGGGLVQSGGSLRLSCAASGRTRSMYVMGWFRQAPGKEREFVGRIKWSGDTTYTSYADFVKGRFTLYGNQARNTVYLQMNSLKPEDAAVYYCNLRRLDGVNYWGKGTLVTVSS
# notes: as for B1
# Biological target: T1, human PVRIG-his (AcroBiosystems, Cat …)
# Assay: ELISA, coated human PVRIG-his
# Procedure: (§1) The ELISA plate was pre-coated with 100 μL/well of 0.5 μg/mL human PVRIG-his (AcroBiosystems, Cat NO. PVG-H52H4) or cynomolgus monkey PVRIG (Novoprotein, Cat NO. C09B). […] A HRP substrate, TMB (Thermo, Cat NO. 34029) was added into wells after washing the plate again for color development. After adding a termination solution to terminate the reaction, the absorbance value was read by a microplate reader (MD i3×). An antibody binding curve was drawn with concentration of antibodies as the abscissa and the corresponding OD value as the ordinate. The EC50 value was calculated by using a Four Parameter Logistic Fit (GraphPadPrism9). The smaller the EC50 value, the stronger the ability of the antibodies binds to human or cynomolgus monkey PVRIG. The positive control antibodies are COM701-hIgG1 (Patent No.:US20180244774A1), COM701-hIgG4 (patent No.: US20180244774A1) and SRF813-hIgG1 (Patent No.:US20200040081A1); and the negative control antibodies are anti-HA HcAb-hIgG1 (Chengdu NB Biolab, Cat NO. NBR022), anti-CD38 HcAb-hIgG1 (in-house) and anti-Fluorescein-hIgG1 (in house).
row,EC50,Binder
1,0.0621 nM,B1
2,0.0543 nM,B2
3,0.255 nM,B3
4,0.0659 nM,B4
5,0.0513 nM,B5
6,0.0528 nM,B6
7,0.196 nM,B7
8,0.208 nM,B8
9,0.0537 nM,B9
10,0.0557 nM,B10

# Biological target: T2, cynomolgus monkey PVRIG (Novoprotein, …)
# Assay: ELISA, coated cynomolgus monkey PVRIG
# Procedure: as §1
row,EC50,Binder
1,0.0288 nM,B1
2,0.0288 nM,B2
3,0.093 nM,B3
4,0.0353 nM,B4
5,0.0341 nM,B5
6,0.0418 nM,B6
7,0.0534 nM,B7
8,0.129 nM,B8
9,0.036 nM,B9
10,0.0343 nM,B10

# Biological target: T3, human PVRIG on FlpinCHO-PVRIG cells
# Assay: FACS, FlpinCHO-PVRIG cells; AUC of MFI curve relative to COM701-hIgG1
# Procedure: (§2) The Ham's F12 (Gibico, 21127-022) complete medium containing 10% FBS was then added to terminate the digestion and acquire cell suspension. After counting with a cell counter (Beckman Coulter, Vi-CELL), an appropriate amount of cell suspension was centrifuged at 350×g to remove the supernatant, washed twice with PBS, stained with Zombie violet (Biolegend, 423114) and incubated at room temperature for 20 minutes. After incubation, the cells were added with staining buffer (2% FBS+PBS) to stop staining, centrifuged at 350×g to remove the supernatant, washed twice and resuspended with staining buffer to a density of 2×10⁶ cells/mL. The cells were plated into a 96-well plate (50 μL of cell suspension per well) for further use. The antibodies were diluted from the highest concentration of 46 nM (two-fold concentration) with staining buffer by 3.3-fold serial dilution. The diluted antibodies were added to the well containing 50 μL of cell suspension. The plate was placed on a microplate shaker at 400 rpm for 1 minute to fully mix the antibodies and cells, and then incubated at 4° C. for 30 minutes. After the incubation, the cells were washed twice with staining buffer (200 μL per well) and centrifuged at 350×g for 5 minutes to discard the supernatant. The PE goat anti-human IgG Fc antibody (ebioscience, 12-4998-82) was diluted 250 times with staining buffer, added into the washed wells (100 μL per well), mixed well, and stained at 4° C. for 30 minutes. After staining, the cells were washed twice with staining buffer, finally resuspended with 200 μL staining buffer and analyzed by flow cytometry (BD, Canto II). The stronger the signal, the stronger the ability of the antibodies binds to PVRIG. An antibody binding curve was drawn with concentration of antibodies as the abscissa and the corresponding Mean Fluorescence Intensity (MFI) as the ordinate. The AUC value of the curve was calculated by using a Four Parameter Logistic Fit (GraphPadPrism9). The stronger the AUC value, the stronger the ability of the antibodies binds to FlpinCHO-PVRIG and FlpinCHO-cyno PVRIG. […] The binding activity of the antibodies was normalized to the positive control COM701-hIgG1 and SRF813-hIgG1.
row,% AUC to COM701-hIgG1,Binder
1,50.6%,B1
2,122%,B2
3,29.3%,B3
4,18.1%,B4
5,153%,B5
6,133%,B6
7,89.5%,B7
8,36.3%,B8
9,165%,B9
10,63.3%,B10

# Biological target: T3, human PVRIG on FlpinCHO-PVRIG cells
# Assay: FACS, FlpinCHO-PVRIG cells; AUC of MFI curve relative to SRF813-hIgG1
# Procedure: as §2
row,% AUC to SRF813-hIgG1,Binder
1,54.5%,B1
2,134%,B2
3,34.4%,B3
4,23.9%,B4
5,232%,B5
6,181%,B6
7,115%,B7
8,42.7%,B8
9,181%,B9
10,68.6%,B10

# Biological target: T4, cynomolgus monkey PVRIG on …
# Assay: FACS, FlpinCHO-cyno PVRIG cells; AUC of MFI curve relative to COM701-hIgG1
# Procedure: as §2
row,% AUC to COM701-hIgG1,Binder
1,47.6%,B1
2,19.3%,B2
3,28.7%,B3
4,18.4%,B4
5,66.4%,B5
6,128%,B6
7,59.3%,B7
8,24.8%,B8
9,19.6%,B9
10,63.4%,B10

# Biological target: T4, cynomolgus monkey PVRIG on …
# Assay: FACS, FlpinCHO-cyno PVRIG cells; AUC of MFI curve relative to SRF813-hIgG1
# Procedure: as §2
row,% AUC to SRF813-hIgG1,Binder
1,62.4%,B1
2,25.3%,B2
3,33.8%,B3
4,23.9%,B4
5,80.4%,B5
6,174%,B6
7,69.7%,B7
8,29.1%,B8
9,25.7%,B9
10,82.9%,B10
